# In patent US20220040297A1 (Chugai, published 2022):
# Where a chain is given by its changes, count along the chain named. Names and notes keep the numbering of the source.
# B1: CE115HA000 D101Y (antibody, name in Kabat numbering, V domains shown)
# VH: QVQLVESGGGVVQPGRSLRLSCAASGFTFSNAWMHWVRQAPGKGLEWVAQIKAKSNNYATYYAESVKGRFTISRDDSKNSLYLQMNSLKTEDTAVYYCRYVHYGAYYGVYAWGQGTTVTVSS
# VL: DIVMTQSPLSLPVTPGEPASISCRSSQSLVHSNRNTYLHWYQQKPGQAPRLLIYKVSNRFSGVPDRFSGSGSGTDFTLKISRVEAEDVGVYYCGQGTQVPYTFGQGTKLEIK
# B2: CE115HA000 I51E (antibody, name in Kabat numbering, V domains shown)
# VH: B1 VH with I51E, Y110D
# VL: B1 VL
# B3: CE115HA000 G98F (antibody, name in Kabat numbering, V domains shown)
# VH: B1 VH with G104F, Y110D
# VL: B1 VL
# B4: CE115HA000 G98Q (antibody, name in Kabat numbering, V domains shown)
# VH: B1 VH with G104Q, Y110D
# VL: B1 VL
# B5: CE115HA000 G98Y (antibody, name in Kabat numbering, V domains shown)
# VH: B1 VH with G104Y, Y110D
# VL: B1 VL
# B6: CE115HA000 H35N (antibody, name in Kabat numbering, V domains shown)
# VH: B1 VH with H35N, Y110D
# VL: B1 VL
# B7: CE115HA000 H35W (antibody, name in Kabat numbering, V domains shown)
# VH: B1 VH with H35W, Y110D
# VL: B1 VL
# B8: CE115HA000 E61P (antibody, name in Kabat numbering, V domains shown)
# VH: B1 VH with E64P, Y110D
# VL: B1 VL
# B9: CE115HA000 G100bE (antibody, name in Kabat numbering, V domains shown)
# VH: B1 VH with G108E, Y110D
# VL: B1 VL
# B10: CE115HA000 G98H (antibody, name in Kabat numbering, V domains shown)
# VH: B1 VH with G104H, Y110D
# VL: B1 VL
# B11: CE115HA000 H35I (antibody, name in Kabat numbering, V domains shown)
# VH: B1 VH with H35I, Y110D
# VL: B1 VL
# B12: CE115HA000 K52E (antibody, name in Kabat numbering, V domains shown)
# VH: B1 VH with K52E, Y110D
# VL: B1 VL
# B13: CE115HA000 G100bI (antibody, name in Kabat numbering, V domains shown)
# VH: B1 VH with G108I, Y110D
# VL: B1 VL
# B14: CE115HA000 K52D (antibody, name in Kabat numbering, V domains shown)
# VH: B1 VH with K52D, Y110D
# VL: B1 VL
# B15: CE115HA000 K43E (antibody, name in Kabat numbering, V domains shown)
# VH: B1 VH with K43E, Y110D
# VL: B1 VL
# B16: CE115HA000 G100bF (antibody, name in Kabat numbering, V domains shown)
# VH: B1 VH with G108F, Y110D
# VL: B1 VL
# B17: CE115HA000 H35T (antibody, name in Kabat numbering, V domains shown)
# VH: B1 VH with H35T, Y110D
# VL: B1 VL
# B18: CE115HA000 H35G (antibody, name in Kabat numbering, V domains shown)
# VH: B1 VH with H35G, Y110D
# VL: B1 VL
# B19: CE115HA000 H96K (antibody, name in Kabat numbering, V domains shown)
# VH: B1 VH with H102K, Y110D
# VL: B1 VL
# B20: CE115HA000 G100bS (antibody, name in Kabat numbering, V domains shown)
# VH: B1 VH with G108S, Y110D
# VL: B1 VL
# B21: CE115HA000 H35Q (antibody, name in Kabat numbering, V domains shown)
# VH: B1 VH with H35Q, Y110D
# VL: B1 VL
# B22: CE115HA000 H35D (antibody, name in Kabat numbering, V domains shown)
# VH: B1 VH with H35D, Y110D
# VL: B1 VL
# B23: CE115HA000 K43Q (antibody, name in Kabat numbering, V domains shown)
# VH: B1 VH with K43Q, Y110D
# VL: B1 VL
# B24: CE115HA000 H35L (antibody, name in Kabat numbering, V domains shown)
# VH: B1 VH with H35L, Y110D
# VL: B1 VL
# B25: CE115HA000 H96Q (antibody, name in Kabat numbering, V domains shown)
# VH: B1 VH with H102Q, Y110D
# VL: B1 VL
# B26: CE115HA000 G98D (antibody, name in Kabat numbering, V domains shown)
# VH: B1 VH with G104D, Y110D
# VL: B1 VL
# B27: CE115HA000 G98A (antibody, name in Kabat numbering, V domains shown)
# VH: B1 VH with G104A, Y110D
# VL: B1 VL
# B28: CE115HA000 H35Y (antibody, name in Kabat numbering, V domains shown)
# VH: B1 VH with H35Y, Y110D
# VL: B1 VL
# B29: CE115HA000 H35M (antibody, name in Kabat numbering, V domains shown)
# VH: B1 VH with H35M, Y110D
# VL: B1 VL
# B30: CE115HA000 G98P (antibody, name in Kabat numbering, V domains shown)
# VH: B1 VH with G104P, Y110D
# VL: B1 VL
# B31: CE115HA000 G65D (antibody, name in Kabat numbering, V domains shown)
# VH: B1 VH with G68D, Y110D
# VL: B1 VL
# B32: CE115HA000 E61A (antibody, name in Kabat numbering, V domains shown)
# VH: B1 VH with E64A, Y110D
# VL: B1 VL
# B33: CE115HA000 H35R (antibody, name in Kabat numbering, V domains shown)
# VH: B1 VH with H35R, Y110D
# VL: B1 VL
# B34: CE115HA000 E61Q (antibody, name in Kabat numbering, V domains shown)
# VH: B1 VH with E64Q, Y110D
# VL: B1 VL
# B35: CE115HA000 H35K (antibody, name in Kabat numbering, V domains shown)
# VH: B1 VH with H35K, Y110D
# VL: B1 VL
# B36: CE115HA000 H96P (antibody, name in Kabat numbering, V domains shown)
# VH: B1 VH with H102P, Y110D
# VL: B1 VL
# B37: CE115HA000 E61D (antibody, name in Kabat numbering, V domains shown)
# VH: B1 VH with E64D, Y110D
# VL: B1 VL
# B38: CE115HA000 H35F (antibody, name in Kabat numbering, V domains shown)
# VH: B1 VH with H35F, Y110D
# VL: B1 VL
# B39: CE115HA000 H35V (antibody, name in Kabat numbering, V domains shown)
# VH: B1 VH with H35V, Y110D
# VL: B1 VL
# B40: CE115HA000 G100bY (antibody, name in Kabat numbering, V domains shown)
# VH: B1 VH with G108Y, Y110D
# VL: B1 VL
# B41: CE115HA000 H35S (antibody, name in Kabat numbering, V domains shown)
# VH: B1 VH with H35S, Y110D
# VL: B1 VL
# B42: CE115HA000 I51D (antibody, name in Kabat numbering, V domains shown)
# VH: B1 VH with I51D, Y110D
# VL: B1 VL
# B43: CE115HA000 G65E (antibody, name in Kabat numbering, V domains shown)
# VH: B1 VH with G68E, Y110D
# VL: B1 VL
# B44: CE115HA000 G98T (antibody, name in Kabat numbering, V domains shown)
# VH: B1 VH with G104T, Y110D
# VL: B1 VL
# B45: CE115HA000 H96Y (antibody, name in Kabat numbering, V domains shown)
# VH: B1 VH with H102Y, Y110D
# VL: B1 VL
# Molecular target: T1, CD3ε homodimer protein (human, UniProt P07766 23-126, limits assumed, sulfo-tag or biotin label in some ECL assays)
# T1 construct: also called human CD3ε homodimer protein; CD3 (CD3ε)
# Experiment: SPR, CD3ε homodimer on chip;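 note: biacore SPR with antibody variants flowed as analyte over amine-coupled CD3ε homodimer on a CM chip, bound amount of each single-residue H chain variant over that of parent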
# Procedure: An appropriate amount of CD3ε homodimer protein was immobilized onto Sensor chip CM4 (GE Healthcare Japan Corp.) by the amine coupling method. Then, the antibody having an appropriate concentration was injected thereto as an analyte and allowed to interact with the CD3ε homodimer protein on the sensor chip. Then, the sensor chip was regenerated by the injection of 10 mmol/L glycine-HCl (pH 1.5). The assay was conducted at 25° C., and HBS-EP+ (GE Healthcare Japan Corp.) was used as a running buffer. […] Each parameter was calculated using Biacore T200 Evaluation Software (GE Healthcare Japan Corp.).
# Specifically, when the amount of the antibody comprising CE115HA000 bound was defined as X and the amount of the H chain one-amino acid altered form bound was defined as Y, a value of Z (ratio of amounts bound)=Y/X was used.
# T1 sequence (P07766 23-126 limits assumed): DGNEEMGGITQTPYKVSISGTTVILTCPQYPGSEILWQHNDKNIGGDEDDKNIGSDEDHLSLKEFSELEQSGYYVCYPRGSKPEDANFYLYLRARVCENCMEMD
row,ratio of amounts bound vs CE115HA000,Binder
1,6.49,B1
2,0.55,B2
3,1.58,B3
4,1.23,B4
5,2.22,B5
6,0.35,B6
7,0.22,B7
8,1.07,B8
9,0.36,B9
10,2.83,B10
11,0.12,B11
12,0.26,B12
13,0.37,B13
14,0.25,B14
15,0.9,B15
16,0.3,B16
17,0.26,B17
18,0.22,B18
19,0.35,B19
20,0.52,B20
21,0.13,B21
22,0.2,B22
23,0.99,B23

row,ratio of amounts bound vs CE115HA000,Binder
1,0.11,B24
2,0.42,B25
3,0.26,B26
4,1.1,B27
5,0.16,B28
6,0.29,B29
7,1.03,B30
8,0.76,B31
9,1.09,B32
10,0.14,B33
11,1.07,B34
12,0.15,B35
13,0.12,B36
14,0.91,B37
15,0.21,B38
16,0.22,B39
17,0.23,B40
18,0.23,B41
19,0.29,B42
20,0.78,B43
21,1,B44
22,0.17,B45
